Reference: patent publication US20230181756A1 (Novartis, published 2023)
Blank lines part the entries; values can stand above or below the binder they belong to.

Key:
human CCR7 [1] = target: T1, human CCR7 (human, UniProt P32248 25-378); assay: cell-based or functional assay
T1 sequence: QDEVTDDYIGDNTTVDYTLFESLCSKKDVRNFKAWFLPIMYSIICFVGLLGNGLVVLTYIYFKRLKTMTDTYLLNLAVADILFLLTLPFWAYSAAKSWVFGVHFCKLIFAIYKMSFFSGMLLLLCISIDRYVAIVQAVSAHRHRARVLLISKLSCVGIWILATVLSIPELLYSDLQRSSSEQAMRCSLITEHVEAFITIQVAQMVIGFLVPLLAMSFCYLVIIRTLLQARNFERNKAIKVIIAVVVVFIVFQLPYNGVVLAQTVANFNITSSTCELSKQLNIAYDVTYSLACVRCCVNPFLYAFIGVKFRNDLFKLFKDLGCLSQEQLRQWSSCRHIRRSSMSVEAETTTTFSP

human CCR7 [2] = target: T1, human CCR7; assay: FACS titration, DEL cancer cells (receptor density ~100,000)
human CCR7 [3] = target: T1, human CCR7; assay: FACS titration, human CD4+ T cells (receptor density <2,000)
[4] = target: T2, recombinant hCCR7 (Origene #TP306614) (human, UniProt P32248 25-378, limits assumed); assay: ELISA, recombinant CCR7 coated at 3.5 ug/ml, antibody titrated
T2 construct: Bought protein coated on ELISA plates; also called recombinant CCR7
T2 sequence (looked up): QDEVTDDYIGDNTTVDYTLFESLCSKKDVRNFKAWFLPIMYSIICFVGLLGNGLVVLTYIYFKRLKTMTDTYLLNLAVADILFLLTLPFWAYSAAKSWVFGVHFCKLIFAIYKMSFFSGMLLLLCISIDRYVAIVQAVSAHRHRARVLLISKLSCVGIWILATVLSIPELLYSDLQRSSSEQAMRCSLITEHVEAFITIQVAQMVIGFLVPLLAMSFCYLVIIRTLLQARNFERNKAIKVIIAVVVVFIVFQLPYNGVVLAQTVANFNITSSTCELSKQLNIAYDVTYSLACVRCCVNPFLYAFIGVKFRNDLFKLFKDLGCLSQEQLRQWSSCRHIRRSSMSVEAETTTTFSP

human CCR7 [5] = target: T1, human CCR7; assay: FACS titration, NIH3T3.hCCR7 cells (receptor density >1,000,000)
[6] = target: T2, recombinant hCCR7 (Origene #TP306614); assay: ELISA on plate-coated recombinant hCCR7, antibody titrated, anti-hFc-HRP detection, OD 650 nm
human CCR7 [7] = target: T1, human CCR7; assay: FACS on DEL cells, antibody titrated to 100 nM, panel 'ligand 0uM' (no CCL19), anti-hFc.PE detection
human CCR7 [8] = target: T1, human CCR7; assay: FACS on DEL cells, antibody titrated to 100 nM together with a constant 1 uM CCL19 (competitor), panel 'ligand 1uM', anti-hFc.PE detection
human CCR7 [9] = target: T1, human CCR7; assay: cell-based or functional assay; remark: listed apart in the source
mouse CCR7 [10] = target: T3, mouse CCR7 (mouse, UniProt P47774 25-378); assay: FACS titration, CD-1 mouse CD4+ T cells
T3 construct: also called NIH3T3.mouse CCR7
T3 sequence: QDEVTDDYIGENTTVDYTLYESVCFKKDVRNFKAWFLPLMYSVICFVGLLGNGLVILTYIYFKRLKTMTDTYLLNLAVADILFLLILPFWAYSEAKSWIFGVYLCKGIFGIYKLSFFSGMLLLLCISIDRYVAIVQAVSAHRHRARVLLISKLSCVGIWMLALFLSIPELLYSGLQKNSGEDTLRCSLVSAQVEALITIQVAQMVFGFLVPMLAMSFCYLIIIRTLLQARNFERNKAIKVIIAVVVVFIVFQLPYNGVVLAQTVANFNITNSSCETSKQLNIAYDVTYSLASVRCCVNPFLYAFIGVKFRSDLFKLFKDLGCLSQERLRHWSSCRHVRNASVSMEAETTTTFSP

rat CCR7 [11] = target: T4, rat CCR7 (rat, UniProt P47774 25-378 (mouse entry)); assay: FACS titration, Wistar rat CD4+ T cells
T4 construct: also called NIH3T3.rat CCR7
T4 chain: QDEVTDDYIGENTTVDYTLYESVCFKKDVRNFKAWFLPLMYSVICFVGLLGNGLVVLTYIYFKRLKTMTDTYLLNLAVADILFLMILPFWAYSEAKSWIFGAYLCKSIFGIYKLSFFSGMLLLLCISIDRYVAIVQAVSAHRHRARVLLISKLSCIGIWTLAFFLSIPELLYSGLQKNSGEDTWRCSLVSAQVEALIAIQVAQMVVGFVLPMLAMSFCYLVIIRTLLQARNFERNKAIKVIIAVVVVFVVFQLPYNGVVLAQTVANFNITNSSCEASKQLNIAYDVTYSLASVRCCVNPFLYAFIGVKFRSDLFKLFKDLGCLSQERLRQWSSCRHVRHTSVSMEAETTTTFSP

cynomolgus monkey CCR7 [12] = target: T5, cynomolgus monkey CCR7 (cynomolgus monkey, UniProt P32248 25-378 (human entry)); assay: FACS titration, cynomolgus CD4+ T cells
T5 construct: also called Cyno CCR7; NIH3T3.cyno CCR7
T5 sequence: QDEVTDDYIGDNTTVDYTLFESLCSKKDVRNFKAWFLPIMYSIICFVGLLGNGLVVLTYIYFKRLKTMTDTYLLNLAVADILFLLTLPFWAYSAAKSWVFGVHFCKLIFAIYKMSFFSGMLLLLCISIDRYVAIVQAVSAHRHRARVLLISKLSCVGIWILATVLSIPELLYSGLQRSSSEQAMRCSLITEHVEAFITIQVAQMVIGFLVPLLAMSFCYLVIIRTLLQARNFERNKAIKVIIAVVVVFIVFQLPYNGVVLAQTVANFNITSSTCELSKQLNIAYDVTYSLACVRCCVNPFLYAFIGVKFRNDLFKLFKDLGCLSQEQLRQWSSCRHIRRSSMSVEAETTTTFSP

human CCR7 [13] = target: T1, human CCR7; assay: FACS titration, Jeko-1 cancer cells (CCR7+)
human CCR7 [14] = target: T1, human CCR7; assay: FACS titration, human CD4+ T cells from PBMC
rat CCR7 [15] = target: T4, rat CCR7; assay: FACS titration, NIH3T3 cells expressing rat CCR7
cynomolgus monkey CCR7 [16] = target: T5, cynomolgus monkey CCR7; assay: FACS titration, NIH3T3 cells expressing cyno CCR7
human CCR7 [17] = target: T1, human CCR7; assay: FACS titration, NIH3T3 cells expressing human CCR7
mouse CCR7 [18] = target: T3, mouse CCR7; assay: FACS titration, NIH3T3 cells expressing mouse CCR7

pHrodo (6 h MFI), internalization, CD4+ T cells (receptor numbers 2000) (human CCR7 [1]): 402 MFI
pHrodo (6 h MFI), internalization, CMLT1 cells (receptor numbers 19583) (human CCR7 [1]): 561 MFI
pHrodo (6 h MFI), internalization, DEL cells (receptor numbers 110685) (human CCR7 [1]): 3780 MFI
pHrodo (6 h MFI), internalization, JVM3 cells (receptor numbers 8717) (human CCR7 [1]): 146 MFI
pHrodo (6 h MFI), internalization, Jeko-1 cells (receptor numbers 28852) (human CCR7 [1]): 1390 MFI
pHrodo (6 h MFI), internalization, KE97 cells (receptor numbers 152093) (human CCR7 [1]): 4420 MFI
pHrodo (6 h MFI), internalization, L540 cells (receptor numbers 167549) (human CCR7 [1]): 11800 MFI
pHrodo (6 h MFI), internalization, L1236 cells (receptor numbers 61602) (human CCR7 [1]): 5820 MFI
pHrodo (6 h MFI), internalization, MJ cells (receptor numbers 111121) (human CCR7 [1]): 3260 MFI
pHrodo (6 h MFI), internalization, MOTN1 cells (receptor numbers 84200) (human CCR7 [1]): 2540 MFI
pHrodo (6 h MFI), internalization, Mec2 cells (receptor numbers 50840) (human CCR7 [1]): 3000 MFI
EC50 (human CCR7 [2]): 0.47 nM
EC50 (human CCR7 [3]): ~2 nM
Kd [4]: 0.006 nM
EC50 (human CCR7 [5]): 0.64 nM
EC50 (read off the curve) [6]: ~0.07 nM
EC50 (read off the curve) (human CCR7 [7]): ~2 nM
EC50 (read off the curve) (human CCR7 [8]): ~2 nM
B1: Humanized 674J13.CysMab.DAPA (antibody, human IgG1, kappa, V domains shown)
VH: DVQLQESGPGLVKPSQTLSLTCTVSGYSITSGYSWHWIRQHPGKGLEWMAHIHSSGSTNYNPSLKSRITISRDTSKNQFSLKLSSVTAADTAVYYCARGGVQAFAYWGQGTLVTVSS
VL: EIVLTQSPATLSASPGERVTMSCSASSSVIYMHWYQQKPGQAPRRWIYDTSKLASGVPARFSGSGSGTDYTLTISSMEPEDAAVYYCQQWSSNPLTFGQGTKLEIKR
notes: Human IgG1 kappa with D265A/P329A and CysMab cysteines; also called 674J13 (Humanized, CysMab DAPA)

ADCC activity; IC50 (nM); reporter assay, JVM2 targets and Jurkat-V158 effectors (human CCR7 [9]): 0.077 nM
EC50 (mouse CCR7 [10]): 48 to 51 nM
EC50 (rat CCR7 [11]): 18 to 31 nM
EC50 (cynomolgus monkey CCR7 [12]): 5.8 to 12 nM
EC50 (human CCR7 [13]): 1.5 nM
EC50 (human CCR7 [14]): 22 to 30 nM
EC50 (rat CCR7 [15]): 2.4 nM
EC50 (cynomolgus monkey CCR7 [16]): 1.3 nM
EC50 (human CCR7 [17]): 1.3 nM
EC50 (mouse CCR7 [18]): 2.5 nM
B2: 121G12 non-humanized CysMab (antibody, human IgG1, kappa, V domains shown)
VH: EVQLVESGGGLVKPGGSLKLSCAASGFTFSTYAMSWVRQTPEKRLEWVATISDGGSYSYYPDNVKGRFTISRDNAKNNLYLQMSHLKSEDTAMYYCARRGSRYEEYYVMDYWGQGTSVTVSS
VL: DIVLTQSPATLSVTPGDSVSLSCRASQSISNNLHWYQQKSHESPKLLIKYASQSISGIPSRFSGSGSGTDFTLSINSVETEDFGMYFCQQSNSWLTFGAGTKLGLKR
notes: Chimeric: murine variable regions on human IgG1 kappa with CysMab cysteines (E152C, S375C) and wild type Fc; also called Parental 121G12 hIgG1 CysMab; Non-humanized CysMab antibody 121G12
